Data on 6 molecules can be found in patent publication US7279325B2, “Method for identifying antagonist compounds of the estrogen-related receptor 3 (ERR3) by using the x-ray structural coordinates of the ligand binding domain” (priority 2002, dated 2007).

First the molecules themselves.
B1: hSRC-1 peptide (SRC-1 NR box 2, amino acids 686-700) (peptide)
peptide: RHKILHRLLQEGSPS
notes: Contains the second LXXLL motif of the RID of SRC-1; also called SRC-1 NR box 2 peptide
B2: GST-tagged SRC-1 RID (Receptor Interaction Domain of hSRC-1, amino acids 614-764) (other, not shown: a dimerising Fc or GST)
chain: HNNDRLSDGDSKYSQTSHKLVQLLTTTAEQQLRHADIDTSCKDVLSCTGTSNSASANSSGGSCPSSHSSLTERHKILHRLLQEGSPSDITTLSVEPDKKDSASTSVSVTGQVQGNSSIKLELDASKKKESKDHQLLRYLLDKDEKDLRSTP
notes: also called GST-SRC-1 RID; RID of SRC-1
B3: His-tagged ERR3 LBD mutant L345I-F435L-F450L (receptor)
chain: PAKKPYNKIVSHLLVAEPEKIYAMPDPTVPDSDIKALTTLCDLADRELVVIIGWAKHIPGFSTLSLADQMSLLQSAWMEILILGVVYRSLSFEDELVYADDYIMDEDQSKLAGLLDINNAILQLVKKYKSMKLEKEEFVTLKAIALANSDSMHIEDVEAVQKLQDVLHEALQDYEAGQHMEDPRRAGKMLMTLPLLRQTSTKAVQHLYNIKLEGKVPMHKLLLEMLEAKV
notes: also called triple point mutation; not shown: hexahistidine tag from vector pET-15b
B4: His-tagged ERR3 LBD mutant L345I-F435L (receptor)
chain: B3 chain with L222F
notes: not shown: hexahistidine tag from vector pET-15b

Assay [1] deals with T1, ERRα (Homo sapiens, UniProt P11474).
T1 sequence (P11474 1-423): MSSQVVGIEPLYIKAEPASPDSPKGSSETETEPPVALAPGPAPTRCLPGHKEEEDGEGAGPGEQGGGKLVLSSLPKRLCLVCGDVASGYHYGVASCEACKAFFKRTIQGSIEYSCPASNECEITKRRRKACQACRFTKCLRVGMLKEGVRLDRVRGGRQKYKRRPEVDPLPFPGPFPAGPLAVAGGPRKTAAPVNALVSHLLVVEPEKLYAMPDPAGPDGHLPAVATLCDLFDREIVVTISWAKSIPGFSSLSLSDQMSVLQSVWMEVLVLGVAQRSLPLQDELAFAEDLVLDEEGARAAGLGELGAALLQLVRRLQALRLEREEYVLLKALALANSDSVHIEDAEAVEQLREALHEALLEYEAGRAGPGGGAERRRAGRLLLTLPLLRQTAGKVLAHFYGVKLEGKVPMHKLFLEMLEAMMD
Conditions: micromolar concentrations; Yang and Chen (1999); cited from earlier work.

Assay [2] deals with T2, His-tagged ERR3 LBD (wild type; residues 229 to 458 of the Estrogen-Related Receptor 3) (human (human and murine receptor are …, UniProt P62508 229-458).
T2 construct: Expressed in E. coli BL21(DE3); Forms a homodimer in the crystal, in gel filtration and in mass spectrometry; SwissProt O75454 is printed for hERR3; also called wt LBD; wt ERR3; not shown: hexahistidine tag from vector pET-15b
T2 sequence: B3 chain with I117L, L207F, L222F
Kind of assay: crystal structure. An excerpt:
A.2 Protein Purification, Crystallization, Data Collection and Processing.

The target of assay [3] is T3, His-tagged ERR3 LBD mutant L345I (human (human and murine receptor are …, UniProt P62508 229-458)).
T3 construct: not shown: hexahistidine tag from vector pET-15b
T3 sequence: B3 chain with L207F, L222F
Kind of assay: native polyacrylamide gradient gel, no ligand. Here is the method: (§1) After purification the proteins were dialyzed in assay buffer (20 mM Tris.HCl pH 8.0, 200 mM NaCl), and concentrated. […] Protein complexes were resolved on native polyacrylamide gradient gels (8%-25%) using the Phast System (Pharmacia).
(§2) In vitro interaction assays with the RID (amino acids 617-764) of the coactivator SRC-1 has first been performed. […] Complexes were separated on native polyacrylamide gradient gels.

The target in assay [4] is T4, His-tagged ERR3 LBD mutant A272L (human (human and murine receptor are …, UniProt P62508 229-458)).
T4 construct: also called ERR3(A272L); ALA272LEU; not shown: hexahistidine tag from vector pET-15b
T4 sequence: B3 chain with A44L, I117L, L207F, L222F
The assay is described as follows: native polyacrylamide gradient gel, no ligand. The protocol:
as §1, §2

Assay [5] has as its target T5, His-tagged ERR3 LBD mutant F435L (human (human and murine receptor are …, UniProt P62508 229-458)).
T5 construct: also called ERR3(F435L); PHE435LEU; not shown: hexahistidine tag from vector pET-15b
T5 sequence: B3 chain with I117L, L222F
The assay is described as follows: native polyacrylamide gradient gel, no ligand. Here is the method:
as §1, §2

In assay [6] the target is T6, His-tagged ERR3 LBD mutant A272F (human (human and murine receptor are …, UniProt P62508 229-458)).
T6 construct: also called ERR3(A272F); ALA272PHE; not shown: hexahistidine tag from vector pET-15b
T6 sequence: B3 chain with A44F, I117L, L207F, L222F
The assay is described as follows: native polyacrylamide gradient gel, no ligand. Here is the method:
as §1, §2

Assay [7] concerns the target T2, His-tagged ERR3 LBD (wild type; …). Kind of assay: native polyacrylamide gradient gel, no ligand. Here is the method: as §1, §2
In assay [8] the target is B2. Kind of assay: native polyacrylamide gradient gel, no ligand. Here is the method: as §1, §2

Where a chain is given by its changes, count along the chain named. Names may count otherwise.

For `CC1(C)C(C(Cl)Cl)C2(Cl)C(Cl)C(Cl)C1(Cl)C2(Cl)Cl` (stereo not shown) [toxaphene], the ERRα basal activity result in assay [1] is “decrease”.
On to `ClC1=C(Cl)C2(Cl)C3C(Cl)C(Cl)CC3C1(Cl)C2(Cl)Cl` (stereo not shown) [chlordane], for which, in assay [1], the ERRα basal activity entry was “decrease”.
For the molecule B1, the binding result in assay [2] was “binds”.
With B2, the binding result in assay [3], in assay [4], in assay [5], in assay [6] and in assay [7] was “binds” throughout.
For the molecule B3, the binding result in assay [8] is “binds”.
With B4, the binding result in assay [8] is “binds”.
